Blank lines part the entries; values can stand above or below the binder they belong to.
Tests used:
[1] = molecular target: T1, human Cul3 N-terminal domain (NTD, residues M1-L388) with the engineered mutations I342R and L346D (human, UniProt Q13618 1-388, I342R | L346D); assay: ITC; KCTD5 titrated into Cul3 in the cell; 25°C; 50 mM HEPES pH 7.5, 150 mM NaCl, 1 mM TCEP, 5% glycerol; single-binding site model; conditions: both partners purified
T1 construct: Cullin-3, human, UniProt Q13618, N-terminal domain residues M1-L388, with the stabilising mutations I342R and L346D; The methods say in general that the eluted His-tagged proteins were cleaved with TEV protease; also called Cullin3; Cul3 NTD; source: E. coli BL21(DE3)R3-pRARE2, purified (nickel-sepharose, TEV cleavage, SEC)

[2] = molecular target: T2, human Cul3 N-terminal domain (NTD, residues M1-L388) with the engineered mutations I342R and L346D (human, UniProt Q13618 1-388, I342R | L346D); assay: ITC; KCTD5 titrated into Cul3 NTD; 25°C; 50 mM HEPES pH 7.5, 150 mM NaCl, 1 mM TCEP, 5% glycerol; single-binding site model; conditions: both partners purified
T2 construct: Cullin-3, human, UniProt Q13618, N-terminal domain residues M1-L388, with I342R and L346D introduced to stabilize the isolated Cullin-repeat domain; only the vector pNIC-CTHF is named, the tag is inferred from it; The general methods say that eluted proteins were cleaved with TEV protease; also called Cullin3; Cul3 NTD; source: E. coli BL21(DE3)R3-pRARE2, purified (nickel-sepharose, SEC)

[3] = molecular target: T1, human Cul3 N-terminal domain (NTD, …); assay: ITC; KCTD protein titrated into Cul3 in the cell; 15°C; 50 mM HEPES pH 7.5, 150 mM NaCl, 1 mM TCEP, 5% glycerol; single-binding site model; conditions: both partners purified
[4] = molecular target: T2, human Cul3 N-terminal domain (NTD, …); assay: SEC; KCTD protein alone and mixed with Cul3 NTD at a molar ratio of 1 : 1; UV 280 nm traces; injected at 50 µM; 50 mM HEPES pH 7.5, 150 mM NaCl, 1 mM TCEP; conditions: both partners purified
[5] = molecular target: T2, human Cul3 N-terminal domain (NTD, …); assay: ITC; KCTD protein titrated into Cul3 NTD; 15°C; 50 mM HEPES pH 7.5, 150 mM NaCl, 1 mM TCEP, 5% glycerol; single-binding site model; conditions: both partners purified
[6] = molecular target: the molecule itself; assay: SEC-MALS; BTB domains alone, injected at 50 µM; Shodex KW-803; 50 mM HEPES pH 7.5, 150 mM NaCl, 1 mM TCEP
[7] = molecular target: the molecule itself; assay: crystal structure; BTB domains alone, sitting-drop vapour diffusion at 20 and 4°C, data at 100 K
[8] = molecular target: the molecule itself; assay: SAXS; KCTD-Cul3 complexes co-purified over S200, ~10% more Cul3 added, 10 mg/ml injected onto Shodex KW404 at 20°C; 50 mM HEPES pH 7.5, 150 mM NaCl, 1 mM TCEP, 5% glycerol; curves compared with a 5 : 5 model
[9] = molecular target: T2, human Cul3 N-terminal domain (NTD, …); assay: as above; conditions: both partners purified

B1: KCTD5 BTB + CTD multi-domain construct (residues G40-M234) (domain or fragment, human, UniProt Q9NXV2 40-234, looked up)
chain: GSVSKWVRLNVGGTYFLTTRQTLCRDPKSFLYRLCQADPDLDSDKDETGAYLIDRDPTYFGPVLNYLRHGKLVINKDLAEEGVLEEAEFYNITSLIKLVKDKIRERDSKTSQVPVKHVYRVLQCQEEELTQMVSTMSDGWKFEQLVSIGSSYNYGNEDQAEFLCVVSKELHNTPYGTASEPSEKAKILQERGSRM
notes: TEV cleavage stated in general in the methods; source: E. coli BL21(DE3)R3-pRARE2, purified (nickel-sepharose, TEV cleavage, SEC); not shown: His6, N-terminal, cleaved
Ka [1]: 7.95e+08 M⁻¹
stoichiometry N [1]: 0.94

B3: SHKBP1 BTB domain (residues G18-S120) (domain or fragment, human, UniProt Q8TBC3 18-120, looked up)
chain: GEVIHLNVGGKRFSTSRQTLTWIPDSFFSSLLSGRISTLKDETGAIFIDRDPTVFAPILNFLRTKELDPRGVHGSSLLHEAQFYGLTPLVRRLQLREELDRSS
notes: as for B1
Ka [3]: 1.15e+07 M⁻¹
stoichiometry N [3]: 0.92

B6: KCTD5 BTB domain (residues G40-R145) (domain or fragment)
chain: not shown
notes: Pentamer by SEC-MALS; TEV cleavage stated in general in the methods; source: E. coli BL21(DE3)R3-pRARE2, purified (nickel-sepharose, TEV cleavage, SEC); not shown: His6, N-terminal, cleaved
Ka [1]: 1.8e+07 M⁻¹
stoichiometry N [1]: 0.81

B7: KCTD13 BTB domain (residues G27-L144) (domain or fragment, human, UniProt Q8WZ19 27-144, looked up)
chain: GPAAYGLKPLTPNSKYVKLNVGGSLHYTTLRTLTGQDTMLKAMFSGRVEVLTDAGGWVLIDRSGRHFGTILNYLRDGSVPLPESTRELGELLGEARYYLVQGLIEDCQLALQQKRETL
notes: TEV cleavage stated in general in the methods; also called BACURD1; source: E. coli BL21(DE3)R3-pRARE2, purified (nickel-sepharose, TEV cleavage, SEC); not shown: His6, N-terminal, cleaved
Ka [3]: 1.01e+07 M⁻¹
stoichiometry N [3]: 0.87

B9: human KCTD16 BTB domain (residues G16-E133) (domain or fragment, UniProt Q68DU8 16-133, looked up)
chain: GSAVPNSFPEVVELNVGGQVYFTRHSTLISIPHSLLWKMFSPKRDTANDLAKDSKGRFFIDRDGFLFRYILDYLRDRQVVLPDHFPEKGRLKREAEYFQLPDLVKLLTPDEIKQSPDE
notes: KCTD16, human, UniProt Q68DU8, BTB domain residues G16-E133; cleaved with TEV protease by the general methods; source: E. coli BL21(DE3)R3-pRARE2, purified (nickel-sepharose, TEV cleavage, SEC); not shown: His6, N-terminal, cleaved
stoichiometry N [6]: 5

B10: human KCTD10 BTB domain (residues G26-E135) with F61L (domain or fragment, UniProt Q9H3F6 26-135, looked up)
chain: GTSPSSKYVKLNVGGALYYTTMQTLTKQDTMLKAMLSGRMEVLTDSEGWILIDRCGKHFGTILNYLRDGAVPLPESRREIEELLAEAKYYLVQGLVEECQAALQNKDTYE
notes: KCTD10, human, UniProt Q9H3F6, BTB domain residues G26-E135; cleaved with TEV protease by the general methods; source: E. coli BL21(DE3)R3-pRARE2, purified (nickel-sepharose, TEV cleavage, SEC); not shown: His6, N-terminal, cleaved
stoichiometry N [7]: 4

Continued, in another order:

Kd [2]: 1 nM
B2: human KCTD5 BTB + CTD multi-domain construct (residues G40-M234) (domain or fragment, UniProt Q9NXV2 40-234, looked up)
chain: GSVSKWVRLNVGGTYFLTTRQTLCRDPKSFLYRLCQADPDLDSDKDETGAYLIDRDPTYFGPVLNYLRHGKLVINKDLAEEGVLEEAEFYNITSLIKLVKDKIRERDSKTSQVPVKHVYRVLQCQEEELTQMVSTMSDGWKFEQLVSIGSSYNYGNEDQAEFLCVVSKELHNTPYGTASEPSEKAKILQERGSRM
notes: KCTD5, human, UniProt Q9NXV2, BTB + CTD residues G40-M234; cleaved with TEV protease by the general methods; also called multi-domain KCTD5; source: E. coli BL21(DE3)R3-pRARE2, purified (nickel-sepharose, TEV cleavage, SEC); not shown: His6, N-terminal, cleaved

stoichiometry N [4]: 1 KCTD : Cul3 (5 : 5)
Kd [5]: 87 nM
B4: human SHKBP1 BTB domain (residues G18-S120) (domain or fragment, UniProt Q8TBC3 18-120, looked up)
chain: GEVIHLNVGGKRFSTSRQTLTWIPDSFFSSLLSGRISTLKDETGAIFIDRDPTVFAPILNFLRTKELDPRGVHGSSLLHEAQFYGLTPLVRRLQLREELDRSS
notes: cleaved with TEV protease by the general methods; source: E. coli BL21(DE3)R3-pRARE2, purified (nickel-sepharose, TEV cleavage, SEC); not shown: His6, N-terminal, cleaved

Kd [2]: 55 nM
B5: human KCTD5 BTB domain (residues G40-R145) (domain or fragment)
chain: not shown
notes: KCTD5, human, UniProt Q9NXV2, BTB domain residues G40-R145; cleaved with TEV protease by the general methods; source: E. coli BL21(DE3)R3-pRARE2, purified (nickel-sepharose, TEV cleavage, SEC); not shown: His6, N-terminal, cleaved
stoichiometry N [6]: 5

Kd [5]: 100 nM
stoichiometry N [9]: 1 KCTD : Cul3 (5 : 5)
B8: human KCTD13 BTB domain (residues G27-L144) (domain or fragment, UniProt Q8WZ19 27-144, looked up)
chain: GPAAYGLKPLTPNSKYVKLNVGGSLHYTTLRTLTGQDTMLKAMFSGRVEVLTDAGGWVLIDRSGRHFGTILNYLRDGSVPLPESTRELGELLGEARYYLVQGLIEDCQLALQQKRETL
notes: KCTD13, human, UniProt Q8WZ19, BTB domain residues G27-L144; cleaved with TEV protease by the general methods; also called BACURD1; source: E. coli BL21(DE3)R3-pRARE2, purified (nickel-sepharose, TEV cleavage, SEC); not shown: His6, N-terminal, cleaved
stoichiometry N [7]: 4
stoichiometry N [8]: 5

Source: article PMC5664961 (Biochemical Journal, 2017)
